According to the supplement of paper PMC9170038:

System: MS2 coat protein
Assay: apparent KD of MS2 coat protein; designed switch direction (-1 OFF switch, 1 ON switch): -1; higher = weaker reporter binding
In short: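 Designed RNA switches with common flanks were made on Illumina chips by stalled E. coli RNA polymerase. Titration with SNAP-549-labelled MS2 coat protein doubled from 0.7 or 1.5 nM up to 3 µM. Apparent KD is each design's median over clusters after curve-fitting normalised fluorescence.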

[1] = Eterna round: R95, input ligand: FMN 200 uM
[2] = Eterna round: R95, input ligand: microRNA oligo, concentration not stated
[3] = Eterna round: R95, input ligand: none
[4] = input ligand: microRNA oligo, concentration not stated

| Sequence | apparent KD of MS2 coat protein [2] [nM] | apparent KD of MS2 coat protein (input ligand: FMN 200 uM) [nM] | apparent KD of MS2 coat protein (input ligand: none) [nM] | also measured |
| --- | --- | --- | --- | --- |
| CGGGCAUGAGGAUAUCGAGGUUAGUACAUGAGGAUCACCCAUGUUAUCCAGGUGUCGGUUCGAGAAGGCAUGGCCG [LRO-Ex5-11] (puzzle: Exclusion 5) | 230 | – | – | apparent KD of MS2 coat protein [1]: 464 nM; apparent KD of MS2 coat protein [3]: 340 nM |
| GAAAAGGUAGGAUAUACGAAAAAAAAGGGUAGAAAAAAAACACAUGAGGAUCACCCAUGUAGAAGGACCAGAAG [salish99_ex2_r3_038] (puzzle: Exclusion 2) | 27.9 | – | – | apparent KD of MS2 coat protein [1]: 72.8 nM; apparent KD of MS2 coat protein [3]: 17.3 nM |
| ACAUUCAGAGGAUAUGCGCAUAGAUAAGACUUUGUUUCUUAACAUGAGGAUCACCCAUGUAGAAGGCUGUACCC [Ex2 #66] (Eterna round: R97, puzzle: Exclusion 2) | – | 26.6 | 20.9 | – |
| CCUCAGUGAGGAUAUGGUAGACACAAUCGGGAUUGAGAAGGCCAGAAGGUACAUGAGGAUCACCCAUGUAAUCA [Eternabot (L2) Solution 58] (Eterna round: R97, puzzle: Exclusion 4) | – | 27.2 | 21.9 | – |
| UAAAAGCUAGGAUAUACAUGAGGAUCACCCAUGUCACGGGUGCCACACCGAAAGGUGCGUAGAAGGAGCCCAAA [Orrecedi] (puzzle: Exclusion 3) | 38.4 | – | – | – |
| GAGUACUGAGGAUAUACAUGAGGAUCACCCAUGUGUUCCAGCUAGGAAACUAGCAAAAGUAGAAGGCAGUACUG [salish99_ex3_r3_084] (puzzle: Exclusion 3) | 18.9 | – | – | – |
| GCCCGGGCAGGAUAUACAAUGAGCUUGAGAAAUCGAGUUCGACAUGAGGAUCACCCAUGUAGAAGGGCCCGGGC [-37.4, -35.1 kcal, A 28% 1] (Eterna round: R97, puzzle: Exclusion 2) | – | 24.5 | 14.9 | – |
| UAUGUGUCAGGAUAUUAAUUAUAGGAGAAUGUGACGAUGAUUAAGAAGGGACAUGAGGAUCACCCAUGUUCAUC [JR_Ex4_Sub025] (Eterna round: R97, puzzle: Exclusion 4) | – | 21.3 | 19 | – |
| AUGACCUAAGGAUAUACAUGAGGAUCACCCAUGUCAGGUAAGCCUGUCCGCGGUGCAUGUAGAAGGUAGCUACC [EX3 A.27] (Eterna round: R97, puzzle: Exclusion 3) | – | 122 | 116 | – |
| GAUUAUGCGAGCUUUAGGGACAUGAGGAUCACCCAUGUUCGUCUUAUUGAUCUGGGUACACUGACAUACCUAAAUCU [JMF 70] (puzzle: Sensor v3, turn-off variant 1) | 115 | – | – | apparent KD of MS2 coat protein [1]: 88.8 nM; apparent KD of MS2 coat protein [3]: 110 nM |
| GCCAAGUCAGGAUAUACAUGAGGAUCACCCAUGUAGGACGCUAUUUUGAUCUUGGUAGGUAGAAGGGACAUGGG [Mainaso] (puzzle: Exclusion 3) | 21.8 | – | – | – |
| GUAGAGUGAGGAUAUACGAGAUCGAUAGAUCGGCGAUCCAUACAUGAGGAUCACCCAUGUAGAAGGCACUCUAC [Mat - Exclusion 2 - Eli Mod - D2] (Eterna round: R97, puzzle: Exclusion 2) | – | 625 | 29.3 | – |
| ACUAGAUGAGGAUAUGCAUAUUUUCGUGUUCUUCUAGGUUAACAUGAGGAUCACCCAUGUAGAAGGCGUCUAUU [Exclusion 2 - 23] (puzzle: Exclusion 2) | 18.6 | – | – | – |
| UUCAUGUGAGGAUAUUAGUAGUAAAUGAAUAAAAUUAUUACUGAGAAGGUACAUGAGGAUCACCCAUGUUCCUU [Mat - Exclusion 4 - Eli Mod - D21] (Eterna round: R97, puzzle: Exclusion 4) | – | 20.1 | 14.6 | – |
| UCAAGUAUGUAGGAUAUCGAUGUCUACGGACAUCGAGAAGGACGUACAUGAGGAUCACCCAUGUAACUUGCAUG [Exclusion 6 - B - 10:d] (Eterna round: R96, puzzle: Exclusion 6) | – | 238 | 283 | apparent KD of MS2 coat protein [4]: 144 nM |
| AACUUACAUGAGGAUCACCCAUGUCAGGAUAUCGAAAUUGGCCUGCAAUUACAGGCGACGAGAAGGGACGUUUU [EX1 B.24] (Eterna round: R97, puzzle: Exclusion 1) | – | 29.3 | 16.9 | – |

| Sequence | apparent KD of MS2 coat protein [2] [nM] | apparent KD of MS2 coat protein (input ligand: FMN 200 uM) [nM] | apparent KD of MS2 coat protein (input ligand: none) [nM] | also measured |
| --- | --- | --- | --- | --- |
| UACGGUCCUAACAUGAGGAUCACCCAUGUAACAAAAGAAACCUAGGAUAUCCGCGCCGGAAGGAAGGAGAAGGAGGGCGUGGCA [Ededti] (Eterna round: R96, puzzle: Exclusion NG 3) | – | 50.7 | 51.8 | apparent KD of MS2 coat protein [4]: 34.3 nM |
| AAUUUACAUGAGGAUCACCCAUGUGAGGAUAUAUAAAUAUAUAUGUUAUUGUAUGUUUGUAGAAGGCGCGUGAU [JR_Exc1_Sub031] (Eterna round: R97, puzzle: Exclusion 1) | – | 145 | 83.3 | – |
| UUUUUACAUGAGGAUCACCCAUGUCAGGAUAUGAUUAUAUUUUAUUAUUUUAUUUUUUUCAGAAGGGACUAUUA [My solution] (puzzle: Exclusion 1) | 80.6 | – | – | – |
| AUGAGCAGACGGAGAUCCAACAUGAGGAUCACCCAUGUCUCAAAAGCUUUUUGCUCAUCUUAUUGUACCUUGGUGCG [Mat - Sensor v3 - turn-off var 1 - JL Mod - D18] (puzzle: Sensor v3, turn-off variant 1) | 9.21 | – | – | apparent KD of MS2 coat protein [1]: 161 nM; apparent KD of MS2 coat protein [3]: 170 nM |
| UGCCUAGCAGGAUAUGCCCGGGAUAACAUGAGGAUCACCCAUGUGACCGAUUGAUAUCCUGCAGAAGGGCUAGGGA [JL-EX5-4.10 ViennaUCT mod] (Eterna round: R97, puzzle: Exclusion 5) | – | 62.1 | 16.7 | – |
| ACUUAUUGAGGAUAUACAUUGAUUAACAUGAGGAUCACCCAUGUACAAACAUGUAUUUAUGUAGAAGGCAGAAGAA [JR_Ex5_Sub067] (Eterna round: R97, puzzle: Exclusion 5) | – | 14.4 | 13.4 | – |
| UGAGCUUGUGUGAGGAUAUUUCGAGUGAAAGCUUGAGAGAAGGCACAUGAGGAUCACCCAUGUAAGCGAGUUCG [-26.1, -24 kcal, A 28%, 1bis-1] (Eterna round: R97, puzzle: Brourd's mod of Exclusion 4) | – | 84.2 | 86.8 | – |
| GUCGUGACCAAGGAUAUAGCUAGGGAAGGAAAGUUAGAAGGUGGUACAUGAGGAUCACCCAUGUAGUCCACAAA [Dixeatleve] (puzzle: Exclusion 6) | 13 | – | – | apparent KD of MS2 coat protein [1]: 13.1 nM; apparent KD of MS2 coat protein [3]: 12.9 nM |
| AAAGUAGACCUUGAAGCAUCGUAAACAUGAGGAUCACCCAUGUAGGAUAUGGGUAGCUAUGCUAGCCAGAAGGAUGUGUGGUGA [Eternabot solution 16] (Eterna round: R96, puzzle: Exclusion NG 3) | – | 335 | 54.4 | apparent KD of MS2 coat protein [4]: 39 nM |
| UAUAUGUCAGGAUAUUAGUUGUGUUCGAAUUUCACUUCUGCUGAGAAGGGACAUGAGGAUCACCCAUGUUCCUC [JR_Ex4_Sub006] (Eterna round: R97, puzzle: Exclusion 4) | – | 17.1 | 15.9 | – |
| GUACUGACAGGAUAUACAUGAGGAUCACCCAUGUCCUUAUGCUGACAAAAGUCAGCAAGUAGAAGGGUCUGUAC [Omei Ex3 Model Bachelor's Dilema v2] (Eterna round: R97, puzzle: Exclusion 3) | – | 1270 | 88.4 | – |
| AGGUCACAUGAGGAUCACCCAUGUGAGGAUAUUUACUCAAGAGCUUCGGCUCUCAGGUGAAGAAGGCGCAAUGA [EX1 #54] (Eterna round: R97, puzzle: Exclusion 1) | – | 27.2 | 30 | – |
| UACAUGAGGAUCACCCAUGUUUUGUCGUGUAUGGUAUUUAUCUAGGAUAUCAUUUUAUCUAGUUAUGAGAAGGAGAAUAUUAAU [JMF's solution 89] (Eterna round: R96, puzzle: Exclusion NG 3) | – | – | – | apparent KD of MS2 coat protein [4]: 26.6 nM |
| AGAUGUUAAGAGGAUAUCAGCCAAAACCGGCAGUGAGAAGGCUUGACAUGAGGAUCACCCAUGUUUUGCGGUAA [Islalaus] (Eterna round: R97, puzzle: Exclusion 6) | – | 397 | 38.6 | – |
| AAGAAACAUGAGGAUCACCCAUGUGAGGAUAUGUAAAAGAAAAGAAAAGAAAGAAGAAACAGAAGGCACAAAGG [Mat - Mod of Hog D12] (puzzle: Exclusion 1) | 50.7 | – | – | apparent KD of MS2 coat protein [1]: 82 nM; apparent KD of MS2 coat protein [3]: 45.2 nM |
| UAAAUGUCAGGAUAUUGUUAAUUUAGUUGUUUGUAUUAGUUCGAGAAGGGACAUGAGGAUCACCCAUGUUAAAU [Ex4 #53] (Eterna round: R97, puzzle: Exclusion 4) | – | 45.9 | 30.4 | – |
